# Assay results taken from publication PMC6091870 (Cell reports, 2018).
# T1: ACAD9 (mouse (endogenous in mouse heart)), Q8JZN5
# T1 chain: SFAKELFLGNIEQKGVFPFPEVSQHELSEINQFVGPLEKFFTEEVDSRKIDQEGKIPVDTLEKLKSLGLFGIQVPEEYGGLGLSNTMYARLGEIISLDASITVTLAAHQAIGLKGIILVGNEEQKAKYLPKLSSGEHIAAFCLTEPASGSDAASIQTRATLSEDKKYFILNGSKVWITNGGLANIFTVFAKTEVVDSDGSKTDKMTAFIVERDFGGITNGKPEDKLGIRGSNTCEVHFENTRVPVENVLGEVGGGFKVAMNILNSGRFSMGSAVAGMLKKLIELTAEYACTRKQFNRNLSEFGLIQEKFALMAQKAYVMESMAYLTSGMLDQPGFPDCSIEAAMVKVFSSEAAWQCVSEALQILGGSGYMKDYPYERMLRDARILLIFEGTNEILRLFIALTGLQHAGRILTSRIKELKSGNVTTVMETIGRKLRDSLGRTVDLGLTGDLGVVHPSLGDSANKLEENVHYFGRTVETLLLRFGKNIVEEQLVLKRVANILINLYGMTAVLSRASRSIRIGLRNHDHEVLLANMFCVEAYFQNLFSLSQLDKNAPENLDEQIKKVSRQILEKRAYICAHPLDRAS
# Legend:
# native gel or EMSA = target: the molecule itself; assay: native gel or EMSA
# [1] = target: T1, ACAD9 (mouse (endogenous in mouse …)); assay: native gel or EMSA; details: remark: other sources report otherwise
Binder,stoichiometry N (native gel or EMSA),stoichiometry N [1]
"oxoglutarate dehydrogenase (OGDH) (enzyme, mouse (endogenous in mouse heart), UniProt Q60597 41-1023, looked up) SAPVAAEPFLSGTSSNYVEEMYCAWLENPKSVHKSWDIFFRNTNAGAPPGTAYQSPLSLSRSSLATMAHAQSLVEAQPNVDKLVEDHLAVQSLIRAYQIRGHHVAQLDPLGILDADLDSSVPADIISSTDKLGFYGLHESDLDKVFHLPTTTFIGGQEPALPLREIIRRLEMAYCQHIGVEFMFINDLEQCQWIRQKFETPGIMQFTNEEKRTLLARLVRSTRFEEFLQRKWSSEKRFGLEGCEVLIPALKTIIDMSSANGVDYVIMGMPHRGRLNVLANVIRKELEQIFCQFDSKLEAADEGSGDMKYHLGMYHRRINRVTDRNITLSLVANPSHLEAADPVVMGKTKAEQFYCGDTEGKKVMSILLHGDAAFAGQGIVYETFHLSDLPSYTTHGTVHVVVNNQIGFTTDPRMARSSPYPTDVARVVNAPIFHVNSDDPEAVMYVCKVAAEWRNTFHKDVVVDLVCYRRNGHNEMDEPMFTQPLMYKQIRKQKPVLQKYAELLVSQGVVNQPEYEEEISKYDKICEEAFTRSKDEKILHIKHWLDSPWPGFFTLDGQPRSMTCPSTGLEEDVLFHIGKVASSVPVENFTIHGGLSRILKTRRELVTNRTVDWALAEYMAFGSLLKEGIHVRLSGQDVERGTFSHRHHVLHDQNVDKRTCIPMNHLWPNQAPYTVCNSSLSEYGVLGFELGFAMASPNALVLWEAQFGDFNNMAQCIIDQFICPGQAKWVRQNGIVLLLPHGMEGMGPEHSSARPERFLQMCNDDPDVLPDLQEENFDINQLYDCNWIVVNCSTPGNFFHVLRRQILLPFRKPLIVFTPKSLLRHPEARTSFDEMLPGTHFQRVIPENGPAAQDPHKVKRLLFCTGKVYYDLTRERKARNMEEEVAITRIEQLSPFPFDLLLKEAQKYPNAELAWCQEEHKNQGYYDYVKPRLRTTIDRAKPVWYAGRDPAAAPATGNKKTHLTELQRFLDTAFDLDAFKKFS",2,–
"ACAD9, Q8JZN5 42-625 (enzyme) SFAKELFLGNIEQKGVFPFPEVSQHELSEINQFVGPLEKFFTEEVDSRKIDQEGKIPVDTLEKLKSLGLFGIQVPEEYGGLGLSNTMYARLGEIISLDASITVTLAAHQAIGLKGIILVGNEEQKAKYLPKLSSGEHIAAFCLTEPASGSDAASIQTRATLSEDKKYFILNGSKVWITNGGLANIFTVFAKTEVVDSDGSKTDKMTAFIVERDFGGITNGKPEDKLGIRGSNTCEVHFENTRVPVENVLGEVGGGFKVAMNILNSGRFSMGSAVAGMLKKLIELTAEYACTRKQFNRNLSEFGLIQEKFALMAQKAYVMESMAYLTSGMLDQPGFPDCSIEAAMVKVFSSEAAWQCVSEALQILGGSGYMKDYPYERMLRDARILLIFEGTNEILRLFIALTGLQHAGRILTSRIKELKSGNVTTVMETIGRKLRDSLGRTVDLGLTGDLGVVHPSLGDSANKLEENVHYFGRTVETLLLRFGKNIVEEQLVLKRVANILINLYGMTAVLSRASRSIRIGLRNHDHEVLLANMFCVEAYFQNLFSLSQLDKNAPENLDEQIKKVSRQILEKRAYICAHPLDRAS",–,2
